Numbering of substitutions follows the chain as printed. Each block holds one binder with its values, some of them ahead of it.
Tests used:
[1] = target: T1, human IL2Ra (Peprotech, Germany, #200-02RC) (human, UniProt P01589 22-240); test: direct binding ELISA on coated IL2Ra
T1 construct: Coated on the ELISA plate; also called hIL2Ra; IL-2 receptor alpha
T1 sequence (looked up): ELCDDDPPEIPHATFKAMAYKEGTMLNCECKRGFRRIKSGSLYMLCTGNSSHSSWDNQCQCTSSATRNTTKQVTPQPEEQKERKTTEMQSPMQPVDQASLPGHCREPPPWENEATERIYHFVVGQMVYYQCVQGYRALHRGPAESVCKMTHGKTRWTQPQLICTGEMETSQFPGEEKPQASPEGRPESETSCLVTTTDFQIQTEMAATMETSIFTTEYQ

[2] = target: T2, human IL-11 (human, UniProt P20809 22-199); test: Tri-complex ELISA, hIL-11 + mIL-11Ra-Fc + hgp130-Fc, inhibition of complex formation
T2 construct: Invigate recombinant protein; biotinylated when immobilized in the Di-complex ELISA; also called hIL11; hIL-11
T2 sequence: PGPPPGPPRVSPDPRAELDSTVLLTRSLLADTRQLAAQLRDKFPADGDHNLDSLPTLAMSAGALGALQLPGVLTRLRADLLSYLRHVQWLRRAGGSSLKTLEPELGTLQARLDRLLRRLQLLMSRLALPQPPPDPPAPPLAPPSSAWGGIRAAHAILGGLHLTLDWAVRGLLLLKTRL
Method: In the Tri-complex ELISA format IL-11 antibodies are tested for their ability to inhibit the formation of a complex consisting of murine or human gp130-Fc fusion protein, with murine or human IL-11, and a murine IL11RA-Fc fusion protein. The assay format was adapted according to FIG. 18 (a, b), depending on whether murine or human IL-11 IgG antibodies were tested.
(§1) IgG converted antibodies were subjected to the experimental assay procedure described in Example 19 and IC50 [M], respectively efficacy (%) were calculated accordingly.

[3] = target: T3, murine IL-11 (mouse, UniProt P47873 22-199); test: Tri-complex ELISA, mIL-11 + mIL-11Ra-Fc + mgp130-Fc, inhibition of complex formation
T3 construct: Invigate recombinant protein; biotinylated when immobilized in the Di-complex ELISA; also called mIL11; mIL-11
T3 sequence: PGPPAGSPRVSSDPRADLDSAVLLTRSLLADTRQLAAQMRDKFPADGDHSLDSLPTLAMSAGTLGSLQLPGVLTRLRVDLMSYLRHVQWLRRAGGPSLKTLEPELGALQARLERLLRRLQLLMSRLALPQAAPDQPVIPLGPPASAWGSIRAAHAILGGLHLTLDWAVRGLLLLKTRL
Method: In a first step, 25 μl of goat anti human IgG (Sigma, #12136), diluted 1:1000 in coating buffer (Candor, #121125) was coated on the plate at 4° C. overnight. Next day, the plate was washed one time with 50 μl PBST and then blocked with 50 μl SmartBlock (Candor, #113125) for one hour at room temperature (RT). […] After three additional washes of the coated and blocked microtiter plate with PBS-T, 25 μl of each mixture were added and the assay plate was incubated for one hour at room temperature. After three additional washes, anti-mouse-gp130 biotinylated antibody (R&D, #BAF468) or anti-human gp130 biotinylated antibody (R&D, #BAF228), both 1:1000 in 10% SmartBlock PBS-T, was added and incubated for 1 hour at RT. After three additional washes, a Streptavidin-Peroxidase conjugate (Sigma, #S5512) 1:1000 in SmartBlock PBS-T was added and incubated for one hour at room temperature. After a final three washes, AmplexRed (Fisher Scientific, A12222), 1/1000 in PBS, 0,003% H₂O₂, was added as substrate and incubated for 15 min at RT in the dark. Then, the fluorescence was measured with a plate reader at 535/595 nm. Signals from dose responses were used to calculate IC50 values using GraphPad Prism software. Efficacy was calculated as [(signal measured at lowest antibody concentration−signal measured at the highest antibody concentration)×100] divided by (signal measured at lowest antibody concentration−signal measured in the absence of antibody at an IL11 concentration of 8.2E-11 [M]).
as §1

[4] = target: T4, human IL2Ra (human, UniProt P01589 22-240, limits assumed); test: ELISA on coated IL2Ra, signal ratio to isotype control TPP-10159 at 3.3E-7 M antibody
T4 construct: coated on the ELISA plate; also called IL-2 receptor alpha
T4 sequence (looked up): T1 sequence (looked up)
Method: IL2RA (Peprotech, Germany, #200-02RC) was coated at 1 or 0 μg/ml (buffer only control) in 30 μl coating buffer (Candor, #113500) per well on a 384 well microtiter plate (Maxisorb, Nunc, #460518) over night at 4-8° C. After two washes with 50 μl/well washing buffer (PBS+0.05% Tween, pH 7.4), the plates were incubated for two hours at room temperature with 50 μl/well SmartBlock (Candor, #113500). After blocking, the plates were washed three times with washing buffer. Then, a dilution series of the respective antibody (1E-7 [M] down to 2E-13 [M]) in PBS+0.05% Tween, 10% SmartBlock were added in 30 μl to the microtiter plate and incubated for 90 min at room temperature. After three additional washes, 30 μl anti mouse IgG HRP-conjugated antibody (Biotechne, HAF007), diluted 1:1000 in PBS+0.05% Tween (pH 7.4), were added per well and incubated for one hour. After three additional washes, a mixture of Amplex red (Invitrogen, #12222, 10 mM stock solution in DMSO) 1:1000 diluted in PBS and H2O2 (30%, Merck, #107209)) diluted 1:10000 in PBS were added as substrate with 30 μl per well and incubated for 20 min in the dark. Relative fluorescence was measured with a microtiter plate reader at 535/590 nm.
IgG converted antibodies TPP-were tested for binding to IL2Ra as described in Example 20. The ratios of the signals obtained at an antibody concentration of 3.3E-7 [M] for IgG converted antibody versus the isotype control TPP-10159 were calculated and are shown in Table E22.

B1: TPP-29697 (bispecific antibody, IgG1)
chain 1: QVQLVESGGGVVQPGRSLRLSCAASGFTFSHYDMHWVRQAPGKGLEWVAVISYHGSVKFYADSVKGRFTISRDNSKNTLYLQMNSLRAEDTAVYYCARTPGFHFDYWGQGTLVTVSSGGGGSGGGGSGGGGSQSVLTQPPSASGTPGQRVTISCSGSSSNIGSNYVSWYQQLPGTAPKLLIYYDDLRPSGVPDRFSGSKSGTSASLAISGLRSEDEADYYCSAWDDSLSGVVFGGGTKLTVLGGGGSGGGGSGGGGSGVECPPCPAPPVAGPSVFLFPPKPKDTLMISRTPEVTCVVVGVSHEDPEVKFNWYVDGVEVHNAKTKPREEQYNSTYRVVSVLTVLHQDWLNGKEYKCKVSNKQLPSPIEKTISKAKGQPREPQVYTLPPCRDELTKNQVSLWCLVKGFYPSDIAVEWESNGQPENNYKTTPPVLDSDGSFFLYSKLTVDKSRWQQGNVFSCSVMHEALHNHYTQKSLSLSPGK
chain 2: EVQLLESGGGLVQPGGSLRLSCAASGFTFSSYGMHWVRQAPGKGLEWVAVISYDGSYKYYADSVKGRFTISRDNSKNTLYLQMNSLRAEDTAVYYCAAGVPDYWGQGTLVTVSSGGGGSGGGGSGGGGSQSVLTQPPSASGTPGQRVTISCSGSSSNIGSDYDVHWYQQLPGTAPKLLIYSNEERPSGVPDRFSGSKSGTSASLAISGLRSEDEADYYCSAWDSSLSGPVFGGGTKLTVLGGGGSGGGGSGGGGSGVECPPCPAPPVAGPSVFLFPPKPKDTLMISRTPEVTCVVVGVSHEDPEVKFNWYVDGVEVHNAKTKPREEQYNSTYRVVSVLTVLHQDWLNGKEYKCKVSNKQLPSPIEKTISKAKGQPREPQVCTLPPSRDELTKNQVSLSCAVKGFYPSDIAVEWESNGQPENNYKTTPPVLDSDGSFFLVSKLTVDKSRWQQGNVFSCSVMHEALHNHYTQKSLSLSPGK
notes: scFv-kih-hIgG1 with Fc-silencing mutations; arms from TPP-29519 and TPP-29528
binding result [1]: no binding (tested: 1E-07 [M] antibody)

B2: TPP-29523 (antibody, mouse IgG1)
heavy: QVQLVESGGGVVQPGRSLRLSCAASGFTFSHYDMHWVRQAPGKGLEWVAVISYEGSVKFYADSVKGRFTISRDNSKNTLYLQMNSLRAEDTAVYYCARTPGFHFDYWGQGTLVTVSSAKTTPPSVYPLAPGSAAQTNSMVTLGCLVKGYFPEPVTVTWNSGSLSSGVHTFPAVLQSDLYTLSSSVTVPSSTWPSETVTCNVAHPASSTKVDKKIVPRDCGCKPCICTVPEVSSVFIFPPKPKDVLTITLTPKVTCVVVDISKDDPEVQFSWFVDDVEVHTAQTQPREEQFNSTFRSVSELPIMHQDWLNGKEFKCRVNSAAFPAPIEKTISKTKGRPKAPQVYTIPPPKEQMAKDKVSLTCMITDFFPEDITVEWQWNGQPAENYKNTQPIMDTDGSYFVYSKLNVQKSNWEAGNTFTCSVLHEGLHNHHTEKSLSHSPGK
light: QSVLTQPPSASGTPGQRVTISCSGSSSNIGSNYVNWYQQLPGTAPKLLIYYDDLRPSGVPDRFSGSKSGTSASLAISGLRSEDEADYYCSAWDDSLSGVVFGGGTKLTVLGQPKSSPSVTLFPPSSEELETNKATLVCTITDFYPGVVTVDWKVDGTPVTQGMETTQPSKQSNNKYMASSYLTLTARAWERHSSYSCQVTHEGHTVEKSLSRADCS
notes: mIgG1, Lambda
Efficacy (%) [2]: 84.3%
IC50 [2]: 2.1 nM
Efficacy (%) [3]: 84.3%
IC50 [3]: 0.12 nM
Antibody/Isotype Control Ratio of IL-2Ra Binding Signals [4]: 1.2 ratio

Other lines, results leading:

Efficacy (%) [2]: 81.8%
IC50 [2]: 1.3 nM
Efficacy (%) [3]: 81.8%
IC50 [3]: 0.13 nM
Antibody/Isotype Control Ratio of IL-2Ra Binding Signals [4]: 0.6 ratio
B3: TPP-29520 (antibody, mouse IgG1)
heavy: B2 heavy with E54S, F102S
light: B2 light
notes: mIgG1, Lambda

binding result [1]: no binding (tested: 3.3E-7 [M] antibody)
B4: TPP-23580 (antibody, mouse IgG1, kappa)
heavy: EVQLVQSGAEVKKPGASVKISCKASGYTFTDYNMDWVKQAPGQRLEWIGDINPHNGGPIYNQKFTGRATLTVDKSASTAYMELSSLRSEDTAVYYCARGELGHWYFDVWGQGTTVTVSSAKTTPPSVYPLAPGSAAQTNSMVTLGCLVKGYFPEPVTVTWNSGSLSSGVHTFPAVLQSDLYTLSSSVTVPSSTWPSETVTCNVAHPASSTKVDKKIVPRDCGCKPCICTVPEVSSVFIFPPKPKDVLTITLTPKVTCVVVDISKDDPEVQFSWFVDDVEVHTAQTQPREEQFNSTFRSVSELPIMHQDWLNGKEFKCRVNSAAFPAPIEKTISKTKGRPKAPQVYTIPPPKEQMAKDKVSLTCMITDFFPEDITVEWQWNGQPAENYKNTQPIMDTDGSYFVYSKLNVQKSNWEAGNTFTCSVLHEGLHNHHTEKSLSHSPGK
light: DIVLTQSPASLALSPGERATLSCRASKSVSTSGYSYIHWYQQKPGQPPRLLIYLASNLDSGVPARFSGSGSGTDFTLNIHPLEEEDFATYYCQHSRDLPPTFGQGTKLEIKRADAAPTVSIFPPSSEQLTSGGASVVCFLNNFYPKDINVKWKIDGSERQNGVLNSWTDQDSKDSTYSMSSTLTLTKDEYERHNSYTCEATHKTSTSPIVKSFNRNEC
notes: also called BSN 3C6 2.2-2.1-mIgG1Kappa

binding result [1]: no binding (tested: 1E-07 [M] antibody)
B5: TPP-29603 (bispecific antibody, IgG1)
chain 1: QVQLVESGGGVVQPGRSLRLSCAASGFTFSHYDMHWVRQAPGKGLEWVAVISYHGSVKFYADSVKGRFTISRDNSKNTLYLQMNSLRAEDTAVYYCARTPGFHFDYWGQGTLVTVSSGGGGSGGGGSGGGGSQSVLTQPPSASGTPGQRVTISCSGSSSNIGSNYVSWYQQLPGTAPKLLIYYDDLRPSGVPDRFSGSKSGTSASLAISGLRSEDEADYYCSAWDDSLSGVVFGGGTKLTVLGGGGSGGGGSGGGGSGVECPPCPAPPVAGPSVFIFPPKPKDVLTITLTPKVTCVVVDISKDDPEVQFSWFVDDVEVHTAQTQPREEQFNSTFRSVSELPIMHQDWLNGKEFKCRVNSAAFPAPIEKTISKTKGRPKAPQVYTIPPCKEQMAKDKVSLWCMITDFFPEDITVEWQWNGQPAENYKNTQPIMDTDGSYFVYSKLNVQKSNWEAGNTFTCSVLHEGLHNHHTEKSLSHSPGK
chain 2: EVQLLESGGGLVQPGGSLRLSCAASGFTFSSYGMHWVRQAPGKGLEWVAVISYDGSYKYYADSVKGRFTISRDNSKNTLYLQMNSLRAEDTAVYYCAAGVPDYWGQGTLVTVSSGGGGSGGGGSGGGGSQSVLTQPPSASGTPGQRVTISCSGSSSNIGSDYDVHWYQQLPGTAPKLLIYSNEERPSGVPDRFSGSKSGTSASLAISGLRSEDEADYYCSAWDSSLSGPVFGGGTKLTVLGGGGSGGGGSGGGGSGVECPPCPAPPVAGPSVFIFPPKPKDVLTITLTPKVTCVVVDISKDDPEVQFSWFVDDVEVHTAQTQPREEQFNSTFRSVSELPIMHQDWLNGKEFKCRVNSAAFPAPIEKTISKTKGRPKAPQVCTIPPPKEQMAKDKVSLSCAITDFFPEDITVEWQWNGQPAENYKNTQPIMDTDGSYFVVSKLNVQKSNWEAGNTFTCSVLHEGLHNHHTEKSLSHSPGK
notes: scFv-kih-mIgG1; arms from TPP-29519 and TPP-29528

— patent publication US20240317847A1 (Bayer, published 2024)
